{"source": "the supplement of paper PMC5998384", "key": {"HeLa Kyoto [1]": {"tested_on": "HeLa Kyoto", "test": "solubility in G1/S (NP-40 vs SDS abundance) (log2 ratio); higher = more soluble", "details": "cell cycle stage: G1/S"}, "HeLa Kyoto [2]": {"tested_on": "HeLa Kyoto", "test": "melting temperature (median over replicates), in situ; higher = more thermally stable"}, "HeLa Kyoto [3]": {"tested_on": "HeLa Kyoto", "test": "solubility change mitosis vs G1/S (difference of NP-40 vs SDS log2 ratios) (log2 ratio difference); higher = more soluble in mitosis"}, "HeLa Kyoto [4]": {"tested_on": "HeLa Kyoto", "test": "thermal stability score vs G1/S (z-score of summed log2 fold changes over temperatures); higher = more thermally stable than in G1/S"}, "[5]": {"details": "cell cycle stage: early G1 (4.5 h after nocodazole release)"}}}
{"sequence": "MAEGSAVSDPQHAARLLRALSSFREESRFCDAHLVLDGEEIPVQKNILAAASPYIRTKLNYNPPKDDGSTYKIELEGISVMVMREILDYIFSGQIRLNEDTIQDVVQAADLLLLTDLKTLCCEFLEGCIAAENCIGIRDFALHYCLHHVHYLATEYLETHFRDVSSTEEFLELSPQKLKEVISLEKLNVGNERYVFEAVIRWIAHDTEIRKVHMKDVMSALWVSGLDSSYLREQMLNEPLVREIVKECSNIPLSQPQQGEAMLANFKPRGYSECIVTVGGEERVSRKPTAAMRCMCPLYDPNRQLWIELAPLSMPRINHGVLSAEGFLFVFGGQDENKQTLSSGEKYDPDANTWTALPPMNEARHNFGIVEIDGMLYILGGEDGEKELISMECYDIYSKTWTKQPDLTMVRKIGCYAAMKKKIYAMGGGSYGKLFESVECYDPRTQQWTAICPLKERRFGAVACGVAMELYVFGGVRSREDAQGSEMVTCKSEFYHDEFKRWIYLNDQNLCIPASSSFVYGAVPIGASIYVIGDLDTGTNYDYVREFKRSTGTWHHTKPLLPSDLRRTGCAALRIANCKLFRLQLQQGLFRIRVHSP [GAN]", "values": [{"measurement": "solubility in G1/S (log2)", "setting": "HeLa Kyoto [1]", "value": -0.0081}, {"measurement": "melting temperature", "setting": "HeLa Kyoto [2]; cell cycle stage: G1/S", "value": 51.6, "unit": "°C"}, {"measurement": "melting temperature", "setting": "HeLa Kyoto [2]; cell cycle stage: mitosis", "value": 48.7, "unit": "°C"}, {"measurement": "solubility change mitosis (log2)", "setting": "HeLa Kyoto [3]", "value": -0.271}, {"measurement": "thermal stability score", "setting": "HeLa Kyoto [4]; [5]", "value": -0.83}, {"measurement": "thermal stability score", "setting": "HeLa Kyoto [4]; cell cycle stage: mitosis", "value": -2.48}]}
{"sequence": "MSRDRFRSRGGGGGGFHRRGGGGGRGGLHDFRSPPPGMGLNQNRGPMGPGPGQSGPKPPIPPPPPHQQQQQPPPQQPPPQQPPPHQPPPHPQPHQQQQPPPPPQDSSKPVVAQGPGPAPGVGSAPPASSSAPPATPPTSGAPPGSGPGPTPTPPPAVTSAPPGAPPPTPPSSGVPTTPPQAGGPPPPPAAVPGPGPGPKQGPGPGGPKGGKMPGGPKPGGGPGLSTPGGHPKPPHRGGGEPRGGRQHHPPYHQQHHQGPPPGGPGGRSEEKISDSEGFKANLSLLRRPGEKTYTQRCRLFVGNLPADITEDEFKRLFAKYGEPGEVFINKGKGFGFIKLESRALAEIAKAELDDTPMRGRQLRVRFATHAAALSVRNLSPYVSNELLEEAFSQFGPIERAVVIVDDRGRSTGKGIVEFASKPAARKAFERCSEGVFLLTTTPRPVIVEPLEQLDDEDGLPEKLAQKNPMYQKERETPPRFAQHGTFEYEYSQRWKSLDEMEKQQREQVEKNMKDAKDKLESEMEDAYHEHQANLLRQDLMRRQEELRRMEELHNQEMQKRKEMQLRQEEERRRREEEMMIRQREMEEQMRRQREESYSRMGYMDPRERDMRMGGGGAMNMGDPYGSGGQKFPPLGGGGGIGYEANPGVPPATMSGSMMGSDMRTERFGQGGAGPVGGQGPRGMGPGTPAGYGRGREEYEGPNKKPRF [SFPQ]", "values": [{"measurement": "solubility in G1/S (log2)", "setting": "HeLa Kyoto [1]", "value": -0.264}, {"measurement": "melting temperature", "setting": "HeLa Kyoto [2]; cell cycle stage: G1/S", "value": 47.7, "unit": "°C"}, {"measurement": "melting temperature", "setting": "HeLa Kyoto [2]; cell cycle stage: mitosis", "value": 48.9, "unit": "°C"}, {"measurement": "solubility change mitosis (log2)", "setting": "HeLa Kyoto [3]", "value": 0.67}, {"measurement": "thermal stability score", "setting": "HeLa Kyoto [4]; [5]", "value": 4.77}, {"measurement": "thermal stability score", "setting": "HeLa Kyoto [4]; cell cycle stage: mitosis", "value": 7.88}]}
{"sequence": "MAIQFRSLFPLALPGMLALLGWWWFFSRKKGHVSSHDEQQVEAGAVQLRADPAIKEPLPVEDVCPKVVSTPPSVTEPPEKELSTVSKLPAEPPALLQTHPPCRRSESSGILPNTTDMRLRPGTRRDDSTKLELALTGGEAKSIPLECPLSSPKGVLFSSKSAEVCKQDSPFSRVPRKVQPGYPVVPAEKRSSGERARETGGAEGTGDAVLGEKVLEEALLSREHVLELENSKGPSLASLEGEEDKGKSSSSQVVGPVQEEEYVAEKLPSRFIESAHTELAKDDAAPAPPVADAKAQDRGVEGELGNEESLDRNEEGLDRNEEGLDRNEESLDRNEEGLDRNEEIKRAAFQIISQVISEATEQVLATTVGKVAGRVCQASQLQGQKEESCVPVHQKTVLGPDTAEPATAEAAVAPPDAGLPLPGLPAEGSPPPKTYVSCLKSLLSSPTKDSKPNISAHHISLASCLALTTPSEELPDRAGILVEDATCVTCMSDSSQSVPLVASPGHCSDSFSTSGLEDSCTETSSSPRDKAITPPLPESTVPFSNGVLKGELSDLGAEDGWTMDAEADHSGGSDRNSMDSVDSCCSLKKTESFQNAQAGSNPKKVDLIIWEIEVPKHLVGRLIGKQGRYVSFLKQTSGAKIYISTLPYTQSVQICHIEGSQHHVDKALNLIGKKFKELNLTNIYAPPLPSLALPSLPMTSWLMLPDGITVEVIVVNQVNAGHLFVQQHTHPTFHALRSLDQQMYLCYSQPGIPTLPTPVEITVICAAPGADGAWWRAQVVASYEETNEVEIRYVDYGGYKRVKVDVLRQIRSDFVTLPFQGAEVLLDSVMPLSDDDQFSPEADAAMSEMTGNTALLAQVTSYSPTGLPLIQLWSVVGDEVVLINRSLVERGLAQWVDSYYTSL [AKAP1]", "values": [{"measurement": "solubility in G1/S (log2)", "setting": "HeLa Kyoto [1]", "value": -0.0583}, {"measurement": "melting temperature", "setting": "HeLa Kyoto [2]; cell cycle stage: G1/S", "value": 50.3, "unit": "°C"}, {"measurement": "melting temperature", "setting": "HeLa Kyoto [2]; cell cycle stage: mitosis", "value": 50.6, "unit": "°C"}, {"measurement": "solubility change mitosis (log2)", "setting": "HeLa Kyoto [3]", "value": -0.0592}, {"measurement": "thermal stability score", "setting": "HeLa Kyoto [4]; [5]", "value": 0.769}, {"measurement": "thermal stability score", "setting": "HeLa Kyoto [4]; cell cycle stage: mitosis", "value": 1.64}]}
{"sequence": "MRLSWFRVLTVLSICLSAVATATGAEGKRKLQIGVKKRVDHCPIKSRKGDVLHMHYTGKLEDGTEFDSSLPQNQPFVFSLGTGQVIKGWDQGLLGMCEGEKRKLVIPSELGYGERGAPPKIPGGATLVFEVELLKIERRTEL [FKBP2]", "values": [{"measurement": "solubility in G1/S (log2)", "setting": "HeLa Kyoto [1]", "value": 0.262}, {"measurement": "melting temperature", "setting": "HeLa Kyoto [2]; cell cycle stage: G1/S", "value": 53.1, "unit": "°C"}, {"measurement": "melting temperature", "setting": "HeLa Kyoto [2]; cell cycle stage: mitosis", "value": 54.8, "unit": "°C"}, {"measurement": "solubility change mitosis (log2)", "setting": "HeLa Kyoto [3]", "value": -0.0211}, {"measurement": "thermal stability score", "setting": "HeLa Kyoto [4]; [5]", "value": 1.33}, {"measurement": "thermal stability score", "setting": "HeLa Kyoto [4]; cell cycle stage: mitosis", "value": 1.16}]}
{"sequence": "MEVVPAEVNSLLPEEIMDTGITLVDDDSIEAVIVSSPIPMETELEEIVNINSTGDSTATPISTEPITVYSNHTNQVAVNTTITKADSNTTVKPAFPSGLQKLGAQTPVTISANQIILNKVSQTSDLKLGNQTLKPDGQKLILTTLGKSGSPIVLALPHSQLPQAQKVTTQAQSGDAKLPPQQIKVVTIGGRPEVKPVIGVSALTPGSQLINTTTQPSVLQTQQLKTVQIAKKPRTPTSGPVITKLIFAKPINSKAVTGQTTQVSPPVIAGRVLSQSTPGTPSKTITISESGVIGSTLNSTTQTPNKIAISPLKSPNKAVKSTVQTITVGGVSTSQFKTIIPLATAPNVQQIQVPGSKFHYVRLVTATSASSSTQPVSQNPSTNTQPLQQAKPVVVNTTPVRMSVPIVSAQAVKQVVPKPINPTSQIVTTSQPQQRLIMPATPLPQIQPNLTNLPPGTVLAPAPGTGNVGYAVLPAQYVTQLQQSSYVSIASNSTFTGTSGIQTQARLPFNGIIPSESASRPRKPCNCTKSLCLKLYCDCFANGEFCNNCNCTNCYNNLEHENERQKAIKACLDRNPEAFKPKIGKGKEGESDRRHSKGCNCKRSGCLKNYCECYEAKIMCSSICKCIGCKNFEESPERKTLMHLADAAEVRVQQQTAAKTKLSSQISDLLTRPTPALNSGGGKLPFTFVTKEVAEATCNCLLAQAEQADKKGKSKAAAERMILEEFGRCLMSVINSAGKAKSDPCAMNC [LIN54]", "values": [{"measurement": "solubility in G1/S (log2)", "setting": "HeLa Kyoto [1]", "value": 0.15}, {"measurement": "melting temperature", "setting": "HeLa Kyoto [2]; cell cycle stage: G1/S", "value": 46.4, "unit": "°C"}, {"measurement": "melting temperature", "setting": "HeLa Kyoto [2]; cell cycle stage: mitosis", "value": 50.1, "unit": "°C"}, {"measurement": "solubility change mitosis (log2)", "setting": "HeLa Kyoto [3]", "value": -0.11}, {"measurement": "thermal stability score", "setting": "HeLa Kyoto [4]; [5]", "value": 0.22}, {"measurement": "thermal stability score", "setting": "HeLa Kyoto [4]; cell cycle stage: mitosis", "value": 0.778}]}
